The values that follow come from patent US20210115121A1.

Common to all, as to assay: cell-based or functional assay
The target in assay [1] is Tau from human progressive supranuclear palsy brain (human) (UniProt P10636).
Assay [2] concerns the target Tau from human Alzheimer's disease brain (isolated Tau PHF fibrils from Alzheimer's disease patients) (human) (UniProt P10636).
Assay [3] addresses human Tau P301S from brain of P301S Tau transgenic mice (human) (UniProt P10636).
For assay [4], the target named is Tau from human frontotemporal dementia brain (human) (UniProt P10636).
Tau from human frontotemporal dementia brain (human), sequence (P10636 other isoform, or with tags, fused parts or gaps limits assumed): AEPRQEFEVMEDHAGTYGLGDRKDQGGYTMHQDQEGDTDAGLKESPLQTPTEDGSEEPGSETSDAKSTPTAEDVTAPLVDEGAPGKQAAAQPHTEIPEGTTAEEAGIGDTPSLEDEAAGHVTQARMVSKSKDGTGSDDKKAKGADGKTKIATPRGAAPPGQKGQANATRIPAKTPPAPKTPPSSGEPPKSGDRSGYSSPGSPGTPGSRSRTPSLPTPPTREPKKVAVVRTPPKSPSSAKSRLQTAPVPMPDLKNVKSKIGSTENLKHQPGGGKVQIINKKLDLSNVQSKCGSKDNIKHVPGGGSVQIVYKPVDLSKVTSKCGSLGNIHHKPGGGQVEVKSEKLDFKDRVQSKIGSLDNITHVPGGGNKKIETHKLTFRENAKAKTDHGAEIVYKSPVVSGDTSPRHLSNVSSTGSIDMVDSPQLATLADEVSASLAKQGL
For assay [5], the target named is human Tau P301L from brain of P301L Tau transgenic mice (human) (UniProt P10636).
human Tau P301L from brain of P301L Tau transgenic mice (human), sequence (P10636 other isoform, or with tags, fused parts or gaps P301L P301L P301L P301L limits assumed): as the sequence (P10636 other isoform, or with tags, fused parts or gaps limits assumed) above, with P300L counted along it

Tau from human Alzheimer's disease brain (isolated Tau PHF fibrils from Alzheimer's disease patients) (human), sequence (P10636 other isoform, or with tags, fused parts or gaps limits assumed): as the sequence (P10636 other isoform, or with tags, fused parts or gaps limits assumed) above
Tau from human progressive supranuclear palsy brain (human), sequence (P10636 other isoform, or with tags, fused parts or gaps limits assumed): as above
IPN002 of WO2014/028777A2 (antibody), sequence (VH): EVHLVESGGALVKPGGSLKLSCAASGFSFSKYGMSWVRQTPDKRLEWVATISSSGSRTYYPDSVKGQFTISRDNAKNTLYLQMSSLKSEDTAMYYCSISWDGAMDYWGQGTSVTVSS
IPN002 of WO2014/028777A2 (antibody), sequence (VL): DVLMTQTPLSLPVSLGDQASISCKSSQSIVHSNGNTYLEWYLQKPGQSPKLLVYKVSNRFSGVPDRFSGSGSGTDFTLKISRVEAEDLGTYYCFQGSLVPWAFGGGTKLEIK
HJ8.5 of WO 2014/008404 (antibody), sequence (VH): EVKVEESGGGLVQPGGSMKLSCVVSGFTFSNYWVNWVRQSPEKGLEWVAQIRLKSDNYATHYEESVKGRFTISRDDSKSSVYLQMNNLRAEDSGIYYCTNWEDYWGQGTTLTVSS
HJ8.5 of WO 2014/008404 (antibody), sequence (VL): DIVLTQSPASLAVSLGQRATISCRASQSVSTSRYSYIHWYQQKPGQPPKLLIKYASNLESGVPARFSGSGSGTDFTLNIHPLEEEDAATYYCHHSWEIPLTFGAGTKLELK
human Tau P301S from brain of P301S Tau transgenic mice (human), sequence (P10636 other isoform, or with tags, fused parts or gaps P301S P301S P301S P301S): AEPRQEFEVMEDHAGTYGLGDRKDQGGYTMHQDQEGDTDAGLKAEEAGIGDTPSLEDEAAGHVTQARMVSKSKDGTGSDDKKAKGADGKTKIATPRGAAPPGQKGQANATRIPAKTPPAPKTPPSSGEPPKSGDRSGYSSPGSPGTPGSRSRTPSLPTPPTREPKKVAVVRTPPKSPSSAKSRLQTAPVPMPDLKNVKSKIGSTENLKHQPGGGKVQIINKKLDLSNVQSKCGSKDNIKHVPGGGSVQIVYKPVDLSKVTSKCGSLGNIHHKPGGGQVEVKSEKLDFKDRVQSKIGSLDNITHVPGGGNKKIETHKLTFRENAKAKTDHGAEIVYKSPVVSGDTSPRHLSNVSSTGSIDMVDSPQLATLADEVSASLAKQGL

For the substance IPN002 of WO2014/028777A2 (antibody), the IC50 (cellular Tau aggregation assay) was 207 nM in assay [1] and 122 nM in assay [5]. Also, the Imax (maximal efficacy at 300 nM, cellular Tau aggregation assay) in assay [1] worked out at 64%; in assay [2], 19%; in assay [3], 22%; in assay [4], 50%; in assay [5], 73%.

Substance HJ8.5 of WO 2014/008404 (antibody) returned an IC50 (cellular Tau aggregation assay) in assay [1] of 73 nM. The Imax (maximal efficacy at 300 nM, cellular Tau aggregation assay) came out at 79% in assay [1], 46% in assay [2], 43% in assay [3] and 67% in assay [4].

For PT3 of WO2013/096380A2 (antibody), the IC50 (cellular Tau aggregation assay) was 47 nM in assay [1]; 32 nM in assay [2]; 350 nM in assay [3]; 1 nM in assay [4]; 26 nM in assay [5]. Moreover, the Imax (maximal efficacy at 300 nM, cellular Tau aggregation assay) in assay [1] was 55%; in assay [2] it was 69%; in assay [3], 56%; in assay [4], 80%; in assay [5], 69%.
